{"source": "paper PMC9990120", "about": "(Journal of Proteome Research, 2023)", "binders": {"B1": {"name": "MISP (natural protein)", "chain": "MDRVTRYPILGIPQAHRGTGLVLDGDTSYTYHLVCMGPEASGWGQDEPQTWPTDHRAQQGVQRQGVSYSVHAYTGQPSPRGLHSENREDEGWQVYRLGARDAHQGRPTWALRPEDGEDKEMKTYRLDAGDADPRRLCDLERERWAVIQGQAVRKSSTVATLQGTPDHGDPRTPGPPRSTPLEENVVDREQIDFLAARQQFLSLEQANKGAPHSSPARGTPAGTTPGASQAPKAFNKPHLANGHVVPIKPQVKGVVREENKVRAVPTWASVQVVDDPGSLASVESPGTPKETPIEREIRLAQEREADLREQRGLRQATDHQELVEIPTRPLLTKLSLITAPRRERGRPSLYVQRDIVQETQREEDHRREGLHVGRASTPDWVSEGPQPGLRRALSSDSILSPAPDARAADPAPEVRKVNRIPPDAYQPYLSPGTPQLEFSAFGAFGKPSSLSTAEAKAATSPKATMSPRHLSESSGKPLSTKQEASKPPRGCPQANRGVVRWEYFRLRPLRFRAPDEPQQAQVPHVWGWEVAGAPALRLQKSQSSDLLERERESVLRREQEVAEERRNALFPEVFSPTPDENSDQNSRSSSQASGITGSYSVSESPFFSPIHLHSNVAWTVEDPVDSAPPGQRKKEQWYAGINPSDGINSEVLEAIRVTRHKNAMAERWESRIYASEEDD"}}, "target": "BirA*-FLAG tagged GSK-3β (UniProt P49841 1-420)", "sequence (P49841 whole entry)": "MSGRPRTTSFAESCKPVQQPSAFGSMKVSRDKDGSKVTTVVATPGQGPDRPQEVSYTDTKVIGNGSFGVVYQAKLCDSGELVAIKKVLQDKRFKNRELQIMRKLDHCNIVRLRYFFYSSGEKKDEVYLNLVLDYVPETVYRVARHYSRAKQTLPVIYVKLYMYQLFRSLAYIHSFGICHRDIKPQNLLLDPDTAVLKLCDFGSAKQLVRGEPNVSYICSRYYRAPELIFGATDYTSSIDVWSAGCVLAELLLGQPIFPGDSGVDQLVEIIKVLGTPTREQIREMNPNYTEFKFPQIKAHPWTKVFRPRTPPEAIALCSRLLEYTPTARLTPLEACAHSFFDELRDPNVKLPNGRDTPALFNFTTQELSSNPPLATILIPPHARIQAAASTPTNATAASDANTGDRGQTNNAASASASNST", "test": "proximity labelling"}
{"binder": "B1", "values": [{"measurement": "fold signal intensity against the GSK-3α bait (normalised to bait level)", "value": "~4", "unit": "fold"}]}
